Laboratory results taken from the supplement of paper PMC10724198.
± gives the standard deviation of the averaged measurements.

Key:
Saccharomyces cerevisiae [1] = test: protein stability index of tFT-peptide fusion (C-terminal peptide) (PSI (0-1 scale)); higher = more stable (slower turnover)
Protocol: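 MPS profiling in S. cerevisiae of the tFT-X12 degron library: putative degron peptides plus stable controls, 12 aa, fused to the C-terminus of a sfGFP-mCherry timer. Cells are FACS-sorted into 8 mCherry/sfGFP bins and deep-sequenced. PSI runs from 0 (unstable) to 1 (stable). Backgrounds are wild type, das1Δ and doa10Δ at 30 °C, and wild type, das1Δ, cdc34-1 and cdc53-1 at 37 °C; 2-3 technical replicates each.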

Saccharomyces cerevisiae [2] = test: as above; details: genetic background: wild type; temperature: 30 C
[3] = genetic background: cdc34-1, temperature: 37 C
[4] = genetic background: cdc53-1, temperature: 37 C
[5] = genetic background: das1 deletion, temperature: 30 C
[6] = genetic background: das1 deletion, temperature: 37 C
[7] = genetic background: doa10 deletion, temperature: 30 C
[8] = genetic background: wild type, temperature: 30 C
[9] = genetic background: wild type, temperature: 37 C
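Note: PSI is a weighted mean of sequencing reads over stability bins, variants kept only with over 10 reads, mCherry proximal and sfGFP distal, peptide attached via GGGS linker.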

| Sequence | protein stability index (Saccharomyces cerevisiae [1]; [3]) | protein stability index (Saccharomyces cerevisiae [1]; [4]) | protein stability index (Saccharomyces cerevisiae [1]; [5]) | protein stability index (Saccharomyces cerevisiae [1]; [6]) | protein stability index (Saccharomyces cerevisiae [1]; [7]) | protein stability index (Saccharomyces cerevisiae [1]; [8]) | protein stability index (Saccharomyces cerevisiae [1]; [9]) | protein stability index (Saccharomyces cerevisiae [2]) |
| --- | --- | --- | --- | --- | --- | --- | --- | --- |
| LLMLWWARVFSG | 0.296 ± 0.032 | 0.395 ± 0.045 | 0.298 ± 0.015 | 0.408 ± 0.0072 | 0.209 ± 0.016 | 0.243 ± 0.036 | 0.35 ± 0.0075 | 0.329 ± 0.0066 |
| LVCLVASCVRWL | 0.453 ± 0.022 | 0.533 ± 0.0085 | 0.359 ± 0.037 | 0.5664 ± 0.0041 | 0.237 ± 0.0034 | 0.272 ± 0.027 | 0.4608 ± 0.0029 | 0.357 ± 0.019 |
| RSRCVRAAVKVG | 0.612 ± 0.036 | 0.659 ± 0.025 | 0.569 ± 0.043 | 0.70656 ± 0.00048 | 0.177 ± 0.0018 | 0.216 ± 0.023 | 0.427 ± 0.026 | 0.324 ± 0.0059 |
| VPVWHTVKLYCF | 0.342 ± 0.0081 | 0.439 ± 0.0077 | 0.345 ± 0.038 | 0.4934 ± 0.0021 | 0.073 ± 0.00079 | 0.088 ± 0.017 | 0.0851 ± 0.018 | 0.159 ± 0.061 |
| RARFMLGVLLST | 0.5525 ± 0.0044 | 0.617 ± 0.033 | 0.487 ± 0.028 | 0.5834 ± 0.0054 | 0.314 ± 0.0056 | 0.352 ± 0.024 | 0.49366 ± 3e-05 | 0.451 ± 0.021 |
| CVFFPFLGVCYV | 0.4206 ± 0.0039 | 0.43047 ± 8.6e-05 | 0.333 ± 0.025 | 0.473 ± 0.0093 | 0.288 ± 0.01 | 0.336 ± 0.019 | 0.451 ± 0.0089 | 0.425 ± 0.017 |
| AFRRFLLYCRFI | 0.395 ± 0.013 | 0.378 ± 0.0056 | 0.503 ± 0.035 | 0.607 ± 0.015 | 0.199 ± 0.019 | 0.148 ± 0.025 | 0.201 ± 0.029 | 0.198 ± 0.012 |
| GCLSFVAAVHLH | 0.624 ± 0.026 | 0.6949 ± 0.0026 | 0.598 ± 0.043 | 0.69689 ± 0.00038 | 0.284 ± 0.024 | 0.332 ± 0.028 | 0.528 ± 0.034 | 0.4325 ± 0.0028 |
| KLLDHFVKIRVY | 0.164 ± 0.021 | 0.2 ± 0.0077 | 0.225 ± 0.044 | 0.416 ± 0.0072 | 0.0632 ± 0.0066 | 0.0674 ± 0.024 | 0.0534 ± 0.03 | 0.0988 ± 0.0069 |
| ACALRSLPPRPY | 0.69 ± 0.035 | 0.7529 ± 0.0042 | 0.65 ± 0.024 | 0.746 ± 0.024 | 0.68 ± 0.019 | 0.649 ± 0.021 | 0.712 ± 0.017 | 0.188 ± 0.064 |
| WCGSWGVWMRLG | 0.296 ± 0.08 | 0.456 ± 0.015 | 0.534 ± 0.03 | 0.646 ± 0.02 | 0.0974 ± 0.008 | 0.0842 ± 0.0092 | 0.112 ± 0.029 | 0.122 ± 0.031 |
| EKIIVAVLFVVP | 0.354 ± 0.032 | 0.482 ± 0.054 | 0.305 ± 0.02 | 0.504 ± 0.012 | 0.281 ± 0.0051 | 0.302 ± 0.02 | 0.439 ± 0.02 | 0.437 ± 0.043 |
| LVSWAWIWIFVF | 0.251 ± 0.057 | 0.354 ± 0.022 | 0.253 ± 0.039 | 0.417 ± 0.0085 | 0.171 ± 0.0065 | 0.194 ± 0.022 | 0.32239 ± 2.4e-05 | 0.226 ± 0.054 |
| LLFPRVLVLCFS | 0.034 ± 0.011 | 0.0512 ± 0.0018 | 0.124 ± 0.037 | 0.154 ± 0.0093 | 0.105 ± 0.016 | 0.117 ± 0.024 | 0.116 ± 0.012 | 0.183 ± 0.029 |
| FRRSFPFPLFLR | 0.105 ± 0.014 | 0.0555 ± 0.0048 | 0.196 ± 0.031 | 0.238 ± 0.03 | 0.696 ± 0.04 | 0.197 ± 0.045 | 0.219 ± 0.0033 | 0.232 ± 0.12 |
| LFLVVVVRAGGF | 0.144 ± 0.042 | 0.288 ± 0.058 | 0.214 ± 0.03 | 0.4065 ± 0.0012 | 0.187 ± 0.0076 | 0.208 ± 0.022 | 0.382 ± 0.045 | 0.293 ± 0.0094 |
| VLPCSLVPLRLH | 0.66 ± 0.015 | 0.704 ± 0.029 | 0.642 ± 0.012 | 0.702 ± 0.011 | 0.349 ± 0.013 | 0.374 ± 0.026 | 0.548 ± 0.0098 | 0.445 ± 0.014 |
| FSRFPFVKLSLV | 0.642 ± 0.059 | 0.731 ± 0.019 | 0.6201 ± 0.0056 | 0.70163 ± 0.00051 | 0.161 ± 0.0044 | 0.197 ± 0.048 | 0.306 ± 0.012 | 0.297 ± 0.016 |
| CDSRIRKIWSYL | 0.836 ± 0.069 | 0.883 ± 0.019 | 0.774 ± 0.021 | 0.834 ± 0.026 | 0.2666 ± 0.0024 | 0.284 ± 0.039 | 0.494 ± 0.0054 | 0.36 ± 0.0036 |
| VLPLRCSWAAQG | 0.693 ± 0.007 | 0.7521 ± 0.005 | 0.639 ± 0.026 | 0.747 ± 0.027 | 0.246 ± 0.019 | 0.298 ± 0.013 | 0.538 ± 0.044 | 0.39 ± 0.035 |
